According to PMC6377645, “Structural insights into chaperone addiction of toxin-antitoxin systems” (Nature Communications, 2019):
Several values for one entry are separate records, joined by “and”; a condition that tells them apart may be missing. Identical values can stand only once.

B1: ChAD peptide, Mtb-HigA1(104-116) (peptide)
peptide: EVPTWHRLSSYRG
notes: residues 104-116 of the antitoxin Mtb-HigA1 of Mycobacterium tuberculosis (chaperone addiction region); also called C4; 13-mer ChAD peptide
B2: Mtb-SecB^TA chaperone (Rv1957), His6-tag removed (natural protein)
chain: MTDRTDADDLDLQRVGARLAARAQIRDIRLLRTQAAVHRAPKPAQGLTYDLEFEPAVDADPATISAFVVRISCHLRIQNQAADDDVKEGDTKDETQDVATADFEFAALFDYHLQEGEDDPTEEELTAYAATTGRFALYPYIREYVYDLTGRLALPPLTLEILSRPMPVSPGAQWPATRGTP
notes: SecB-like chaperone Mtb-SecB^TA (Rv1957) of Mycobacterium tuberculosis, 181 amino acids; untagged mass printed as 20,388 Da; Residues of the pET15b vector may remain after thrombin cleavage (surmised from the printed mass); For MST the protein was labelled with the dye NT-647; also called SecB-like chaperone; TA-associated SecB chaperone; not shown: His6, N-terminal, cleaved

How the values were obtained:
[1] = target: B2; test: native MS; Mtb-SecB^TA 11.8 µM (tetramer) in 200 mM ammonium acetate pH 7, titrated with ChAD peptide at molar ratios 0 to 20 per tetramer; control peptides C2, C3, C7 at 8 peptides per tetramer; Kd fitted with UniDec, 4 sites, all KD's free; details: both partners purified
[2] = target: B2; test: ITC; ChAD peptide (80-620 µM) injected into Mtb-SecB^TA (18-48 µM) in the cell; 12 °C; 20 mM MES, 200 mM NaCl, pH 6.5; one set of sites; Kd and enthalpy printed once for direct and reverse conditions; details: both partners purified
[3] = target: B2; test: MST; 100 nM NT-647-labelled Mtb-SecB^TA with 3 nM to 100 µM ChAD peptide; 20 mM MES, 200 mM NaCl, 0.025% Tween 20, pH 6.5; 22 °C; details: both partners purified
[4] = target: B1; test: ITC; reverse conditions (protocol of the reverse titration not described); 12 °C; 20 mM MES, 200 mM NaCl, pH 6.5; details: both partners purified
[5] = target: the molecule itself; test: SEC-MALS; Superdex 200 Increase 5/150; 20 mM MES, 200 mM NaCl, pH 6.5; 15 °C; Mtb-SecB^TA 49.1 µM, Mtb-SecB^TA/HigA1 6.5 µM, Mtb-HigA1^ΔC42 100 µM
[6] = target: B2; test: as above; details: both partners purified
[7] = target: B2; test: native MS; Mtb-SecB^TA/HigA1 9.7 µM (hexamer) in 200 mM ammonium acetate pH 7, with 0 to 16 ChAD peptide molecules per hexamer; details: both partners purified
SEC-MALS = target: the molecule itself; test: SEC-MALS

What does the source list for B1?
Kd of the single binding events (four sites fitted, all KD's free) [1]: 6000 to 17000 nM; stoichiometry N [1]: ≤ 4 peptides per tetramer; Kd [2]: 1900 ± 200 nM; dH [2]: -12 kcal/mol; stoichiometry N [2]: 0.47; Kd [3]: 2600 ± 600 nM

B2 was tested. Which “stoichiometry N” value [4] did it give?
The value was 2.2.

And the “stoichiometry N” value [5]?
The value was 4.

B3: Mtb-HigA1 antitoxin, full length, untagged (natural protein)
chain: MSIDFPLGDDLAGYIAEAIAADPSFKGTLEDAEEARRLVDALIALRKHCQLSQVEVAKRMGVRQPTVSGFEKEPSDPKLSTLQRYARALDARLRLVLEVPTLREVPTWHRLSSYRGSARDHQVRVGADKEILMQTNWARHISVRQVEVA
notes: antitoxin HigA1 of the TAC system of Mycobacterium tuberculosis, untagged; Obtained only in complex with Mtb-SecB^TA (4:2 hetero-hexamer); also called TAC antitoxin
How did the “stoichiometry N” value [6] turn out when B3 was run?
The value was 0.5 HigA1 chains per SecB^TA chain (printed as 4:2 chaperone/antitoxin).

And the “stoichiometry N” value [5]?
The value was 2.

And the “stoichiometry N” value [7]?
The value was 0.5 HigA1 chains per SecB^TA chain (printed as 4:2 Mtb-SecB^TA/HigA1).

B4: Mtb-SecB^TA with a N-terminal His6-tag (before thrombin cleavage) (natural protein)
chain: MTDRTDADDLDLQRVGARLAARAQIRDIRLLRTQAAVHRAPKPAQGLTYDLEFEPAVDADPATISAFVVRISCHLRIQNQAADDDVKEGDTKDETQDVATADFEFAALFDYHLQEGEDDPTEEELTAYAATTGRFALYPYIREYVYDLTGRLALPPLTLEILSRPMPVSPGAQWPATRGTP
notes: SecB-like chaperone Mtb-SecB^TA (Rv1957) of Mycobacterium tuberculosis, 181 amino acids; also called His6-Mtb-SecB^TA; not shown: His6, N-terminal, kept
B4 was tested. Which “stoichiometry N” value (SEC-MALS) did it give?
The value was 8 and 4.
